Assay results from patent publication US20260240999A1, “METHODS FOR EX VIVO ENRICHMENT AND EXPANSION OF TUMOR REACTIVE T CELLS AND RELATED COMPOSITIONS THEREOF” (H. LEE MOFFITT CANCER CENTER AND RESEARCH INSTITUTE, INC., priority 2022, published 2026).

Columns and labels:
[1] = system: previously expanded human T cells from three healthy donors; assay: Cytokines, modulators and agonist antibodies with IL-2 on T cell number and memory phenotype; format: cell-based; settings: for percent naïve and central memory T cells at Day 6: cytokine plus 300 IU/mL IL-2; for CD3+ cells/mL on Day 6: cytokine plus 300 IU/mL IL-2 vs IL-2 alone
Experimental: PBMC from three healthy donors were activated, expanded, and cryopreserved as described in Example 11. […] As previously described, stimulation of the healthy donor T cells prior to cryopreservation were carried out with anti-CD3 (OKT3) stimulation in order to mimic conditions present in the tumor microenvironment (TME).
Cells were next seeded into gas permeable 100M culture vessels and expanded for 7-14 days to achieve a large bank of T cells, and cryopreserved.
Cells were maintained in culture for 6 days, with a 50% medium exchange occurring at 3 days post culture initiation.
At the end of the culture period for all culture conditions, cells were assessed for cell count and sub-phenotypes of naïve and central memory T cells by flow cytometry by staining with CD45RA and CCR7 (naïve, CD45RA+ CCR7+; “central” memory, CD45RA-CCR7+).

[2] = system: previously expanded human T cells from three healthy donors; assay: Effect of T cell adjuvants on T cell viability (total viable CD3+ cell count); format: cell-based; settings: 62.5 IU/ml-1000 IU/ml
Experimental: Cells were expanded from PBMC derived from Ficoll gradient separation from three healthy donor's apheresis material. […] Because the studies were carried out in healthy donors, stimulation of the T cells was carried out with anti-CD3 (OKT3) stimulation in order to mimic conditions present in the tumor microenvironment (TME).
Cells were next seeded into gas permeable 100M culture vessels and expanded for 7-14 days to achieve a large bank of T cells, and cryopreserved. […] Half of wells were additionally supplemented with 50 ng/mL OKT3, a human anti-CD3 monoclonal antibody. In total, 15 test adjuvant agents were tested for their impact on cell viability in the presence and absence of anti-CD3 activation (see Table E3). Cells were cultured for 6 days total, including a 50% medium exchange on culture day 3, and monitored for total viable CD3+ cell count.

[3] = at each of three tested concentrations (3.9, 250, and 1000 IU/mL)

Row | Molecule | percent naïve and central memory T cells at Day 6 [1] | CD3+ cells/mL on Day 6 [1] | CD3+ cell number [1, 3] | percent naïve and central memory T cells [1, 3] | dose response of cell number [2]
1 | IL-35: heterodimeric protein of p35 subunit from IL-12 and EBI3 (protein, UniProt P29459 23-219; Q14213 21-229, looked up) Interleukin-12 subunit alpha: RNLPVATPDPGMFPCLHHSQNLLRAVSNMLQKARQTLEFYPCTSEEIDHEDITKDKTSTVEACLPLELTKNESCLNSRETSFITNGSCLASRKTSFMMALCLSSIYEDLKMYQVEFKTMNAKLLMDPKRQIFLDQNMLAVIDELMQALNFNSETVPQKSSLEEPDFYKTKIKLCILLHAFRIRAVTIDRVMSYLNAS Interleukin-27 subunit beta: RKGPPAALTLPRVQCRASRYPIAVDCSWTLPPAPNSTSPVSFIATYRLGMAARGHSWPCLQQTPTSTSCTITDVQLFSMAPYVLNVTAVHPWGSSSSFVPFITEHIIKPDPPEGVRLSPLAERQLQVQWEPPGSWPFPEIFSLKYWIRYKRQGAARFHRVGPIEATSFILRAVRPRARYYVQVAAQDLTDYGELSDWSLPATATMSLGK | measured increase in the percent naïve and central memory T cells | increase in CD3+ cells/mL on Day 6 | – | – | –
2 | IL-27: recombinant cytokine, heterodimer of IL27A (p28) and EBI3 (protein, UniProt Q8NEV9 29-243; Q14213 21-229, looked up) Interleukin-27 subunit alpha: FPRPPGRPQLSLQELRREFTVSLHLARKLLSEVRGQAHRFAESHLPGVNLYLLPLGEQLPDVSLTFQAWRRLSDPERLCFISTTLQPFHALLGGLGTQGRWTNMERMQLWAMRLDLRDLQRHLRFQVLAAGFNLPEEEEEEEEEEEEERKGLLPGALGSALQGPAQVSWPQLLSTYRLLHSLELVLSRAVRELLLLSKAGHSVWPLGFPTLSPQP Interleukin-27 subunit beta: RKGPPAALTLPRVQCRASRYPIAVDCSWTLPPAPNSTSPVSFIATYRLGMAARGHSWPCLQQTPTSTSCTITDVQLFSMAPYVLNVTAVHPWGSSSSFVPFITEHIIKPDPPEGVRLSPLAERQLQVQWEPPGSWPFPEIFSLKYWIRYKRQGAARFHRVGPIEATSFILRAVRPRARYYVQVAAQDLTDYGELSDWSLPATATMSLGK | measured increase in the percent naïve and central memory T cells | increase in CD3+ cells/mL on Day 6 | significant increase in CD3+ cell number | significant increase in CD3+ cell number as well as percent naïve and central memory T cells | –
3 | IL-23: recombinant cytokine, P19 (SEQ ID NO: 1) and P40 (SEQ ID NO: 2) subunits (protein, P19, UniProt Q9NPF7 20-189; P40, UniProt P29460 23-328) chain 1: RAVPGGSSPAWTQCQQLSQKLCTLAWSAHPLVGHMDLREEGDEETTNDVPHIQCGDGCDPQGLRDNSQFCLQRIHQGLIFYEKLLGSDIFTGEPSLLPDSPVGQLHASLLGLSQLLQPEGHHWETQQIPSLSPSQPWQRLLLRFKILRSLQAFVAVAARVFAHGAATLSP chain 2: IWELKKDVYVVELDWYPDAPGEMVVLTCDTPEEDGITWTLDQSSEVLGSGKTLTIQVKEFGDAGQYTCHKGGEVLSHSLLLLHKKEDGIWSTDILKDQKEPKNKTFLRCEAKNYSGRFTCWWLTTISTDLTFSVKSSRGSSDPQGVTCGAATLSAERVRGDNKEYEYSVECQEDSACPAAEESLPIEVMVDAVHKLKYENYTSSFFIRDIIKPDPPKNLQLKPLKNSRQVEVSWEYPDTWSTPHSYFSLTFCVQVQGKSKREKKDRVFTDKTSATVICRKNASISVRAQDRYYSSSWSEWASVPCS | measured increase in the percent naïve and central memory T cells | increase in CD3+ cells/mL on Day 6 | – | – | –
4 | IL-7: recombinant cytokine (protein, UniProt P13232 26-177, looked up) Interleukin-7: DCDIEGKDGKQYESVLMVSIDQLLDSMKEIGSNCLNNEFNFFKRHICDANKEGMFLFRAARKLRQFLKMNSTGDFDLHLLKVSEGTTILLNCTGQVKGRKPAALGEAQPTKSLEENKSLKEQKKLNDLCFLKRLLQEIKTCWNKILMGTKEH | measured increase in the percent naïve and central memory T cells | increase in CD3+ cells/mL on Day 6 | – | – | dose dependent response, wherein cell number increased with increasing concentration
